Source: the supplement of paper PMC9732359
± gives the uncertainty stated by the source.

Experiment: protein stability index of a GFP-peptide fusion (yeast GPS) (PSI 1-4); higher = more stable; sorted into four equal gates, so the index is relative within each strain
In short: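 Each library plasmid carries Cherry plus GFP with a tiled 17-residue yeast protein peptide fused downstream, and the pooled library was carried in yeast. Mid-log cultures in leucine-free medium were sorted into four equal gates by GFP/Cherry ratio. Reads from Illumina sequencing of PCR-amplified plasmids from each gate were assigned to strains by barcodes. Per peptide, the protein stability index was computed as the summed products of gate read frequency and gate number.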

Sequence | protein stability index (doa10∆) | protein stability index (pdr5∆) | protein stability index (san1∆) | protein stability index (ubr1∆)
KSMSILNSFVNDIFERI [HTB1] | 2.73 ± 0.1 | 3.18 ± 0.13 | 2.47 ± 0.2 | 2.94 ± 0.062
PQRLQRKRHQRALKVRN [RPS6A] | 2.96 ± 0.1 | 2.9 ± 0.069 | 2.64 ± 0.096 | 2.87 ± 0.046
VKNTNANPVVATDPVAA [SWP82] | 2 ± 0.1 | 2.91 ± 0.1 | 2.5 ± 0.091 | 2.47 ± 0.061
DLNPLKTLNLFKQIKSA [RPO31] | 2 ± 0.16 | 1.37 ± 0.033 | 2.62 ± 0.11 | 2.15 ± 0.071
LRLRISRKRNEEEDAKN [RPL31A] | 1.72 ± 0.17 | 2.39 ± 0.17 | 3.35 ± 0.16 | 2.32 ± 0.14
CKIDFQKNFMDQFQWIL [RRI2] |  | 1.47 ± 0.092 | 1.55 ± 0.24 | 1.93 ± 0.13
PHLFVNGDLTVSLCAKN [SSN2] | 1.95 ± 0.079 | 2.12 ± 0.081 | 2.25 ± 0.18 | 1.87 ± 0.074
MVEWLESRSFSPIPFPP [PRP8] | 2.52 ± 0.13 | 2.83 ± 0.17 | 3.17 ± 0.13 | 2.9 ± 0.11
LGKVRFANYKLLLKKII [SRB4] | 1.71 ± 0.063 | 1.62 ± 0.05 | 1.43 ± 0.14 | 1.53 ± 0.044
EIRAKEYKTSSDSLGPD [SRB2] | 2.81 ± 0.087 | 2.87 ± 0.058 | 3.04 ± 0.053 | 2.98 ± 0.06
KLKHMVLDKMHARARGP [RET1] | 2.69 ± 0.094 | 2.84 ± 0.084 | 2.47 ± 0.067 | 2.65 ± 0.06
FIYKKVLKEKDVPAYNV [SRB8] | 2.99 ± 0.086 | 3.05 ± 0.062 | 2.95 ± 0.058 | 3.13 ± 0.042
SHKTTKEDTVSWFKQKY [RPL11A] | 1.8 ± 0.064 | 1.56 ± 0.054 | 1.36 ± 0.12 | 1.53 ± 0.064
HAPAYHRSKKDQDQYLE [IRR1] |  | 3.56 ± 0.3 | 2.95 ± 0.19 | 
AQANNNNNGLPQNGNIN [GAL11] | 3.04 ± 0.049 | 3.11 ± 0.049 | 3.05 ± 0.056 | 2.98 ± 0.038
TRKAVRPQKLRASLVPG [RPL6B] | 2.26 ± 0.11 | 1.67 ± 0.11 | 2.9 ± 0.14 | 1.83 ± 0.046
SNKPCMGIVQDTLCGIR [RPO21] | 2.45 ± 0.065 | 1.8 ± 0.067 | 2.15 ± 0.073 | 1.77 ± 0.088
LAMEAILNELEVFIGRV [YJR042W/NUP85] | 2.59 ± 0.12 | 2.93 ± 0.14 | 2.76 ± 0.15 | 2.51 ± 0.06
KLLSLLRSKTSAGRIES [SIR4] | 2.11 ± 0.082 | 2.17 ± 0.087 | 2.42 ± 0.15 | 2.36 ± 0.12
NQNTLKEISARRYKLLT [POP1] | 2.13 ± 0.049 | 2.35 ± 0.045 | 2.1 ± 0.067 | 2.65 ± 0.045
TEKEEDAELMADEEEEI [ISW2] | 3.5 ± 0.18 | 3.38 ± 0.13 | 3.41 ± 0.083 | 3.34 ± 0.17
QPNARALERYDEAEGRF [SMC1] | 3.44 ± 0.12 | 3.58 ± 0.1 | 3.17 ± 0.074 | 3.29 ± 0.097
ARTATVSKKWAAAGVCE [RPL14B] | 2.9 ± 0.089 | 3.21 ± 0.084 | 3.58 ± 0.11 | 2.72 ± 0.066
LKETVIPSLANNGNNST [POP6] | 2.41 ± 0.058 | 3.01 ± 0.065 | 2.54 ± 0.068 | 2.56 ± 0.05
EVAQLGSLACDTADEAK [RPB4] | 3.49 ± 0.15 | 3.28 ± 0.13 | 3.28 ± 0.17 | 2.73 ± 0.11
PTDDKTLKPTFSFTEPA [YOR098C/NUP1] | 3.14 ± 0.088 | 2.65 ± 0.089 | 2.91 ± 0.072 | 3.07 ± 0.042
KNQLRDWIRFVSIRQNQ [RPL22B] | 1.51 ± 0.1 | 1.64 ± 0.061 |  | 1.29 ± 0.091

Sequence | protein stability index (doa10∆) | protein stability index (pdr5∆) | protein stability index (san1∆) | protein stability index (ubr1∆)
ERPPYILNSYGVLKPDI [SIR2] | 2.83 ± 0.078 | 3.12 ± 0.093 | 3.15 ± 0.053 | 3.15 ± 0.061
TGKFVLQGQMEKIMILL [CSN12] | 1.61 ± 0.1 | 2.2 ± 0.12 | 1.31 ± 0.2 | 1.51 ± 0.12
ESTSSTEEVEALLQRLK [MTW1] |  |  |  | 3.23 ± 0.19
WNVEKFKKDFEVNISSL [RPC40] | 2.03 ± 0.11 | 2.98 ± 0.12 | 2.6 ± 0.084 | 2.59 ± 0.082
IREKVAKQALDLYHFAL [SNF2] | 2.52 ± 0.092 | 2.64 ± 0.098 | 2.62 ± 0.094 | 2.54 ± 0.056
PTIRSNAVLGLGDMAVC [YCS4] | 1.61 ± 0.088 | 1.64 ± 0.069 | 1.67 ± 0.13 | 1.71 ± 0.099
LRTVKEVQFGLFSPEEV [RPO21] | 2.76 ± 0.082 | 2.98 ± 0.081 | 3.02 ± 0.046 | 2.95 ± 0.043
PNGTKKAYVRLTADYDA [RPL25] |  |  | 3.07 ± 0.16 | 3.34 ± 0.15
HEIYGSMPLEQLIPIIL [SRB4] | 2.06 ± 0.06 | 2.08 ± 0.068 | 2.37 ± 0.08 | 1.72 ± 0.059
YTREFVEAIRRSNQYQR [NUT2] | 2.26 ± 0.07 | 2.18 ± 0.05 | 2.88 ± 0.12 | 2.21 ± 0.082
EFESELKNVEETQEIKE [ESC2] | 3.54 ± 0.25 | 3.46 ± 0.2 | 3.25 ± 0.18 | 3.29 ± 0.15
KGPRFRKLTSQEINDRL [PRE8] | 3.09 ± 0.098 | 3.19 ± 0.11 | 3.06 ± 0.18 | 3.58 ± 0.093
VTLDITTLTIMRILPRE [RPT4] | 2.53 ± 0.057 | 2.25 ± 0.061 | 2.17 ± 0.081 | 2.45 ± 0.038
STLSNWSSEFAKWAPTL [SNF2] | 2.9 ± 0.054 | 2.45 ± 0.06 | 2.85 ± 0.055 | 2.26 ± 0.047
VLLVEKYGAEYDLVDNK [NAS6] | 1.9 ± 0.22 |  | 3 ± 0.22 | 3 ± 0.19
FKGALTIKILPENTAMF [YMR129W/POM152] | 2.32 ± 0.083 | 2.14 ± 0.052 | 2.33 ± 0.056 | 2.25 ± 0.05
DTVDRLIIKYQKYWESM [GAL11] | 2.73 ± 0.053 | 2.83 ± 0.065 | 2.62 ± 0.053 | 3.02 ± 0.062
SRGAVSGQKAGLIAARR [RPL2A] | 3.4 ± 0.093 | 3.32 ± 0.083 | 3.27 ± 0.065 | 3.25 ± 0.097
NQMGMGTNNGMSMGGGV [YOR098C/NUP1] | 3.39 ± 0.13 | 3.15 ± 0.17 | 3.33 ± 0.099 | 3.24 ± 0.11
ARTIKATLPYIKQDIPI [RPB2] | 2.73 ± 0.1 | 2.3 ± 0.061 | 2.26 ± 0.075 | 2.74 ± 0.072
GNDFKFNYQGDELVLNF [REC8] | 3.34 ± 0.078 | 3.42 ± 0.083 | 3.34 ± 0.053 | 3.17 ± 0.047
LAEIKKTPLLKQYLSAS [RPL6B] | 1.54 ± 0.038 | 1.55 ± 0.049 | 1.24 ± 0.094 | 1.51 ± 0.036
EIPEGVTVSIKSRIVKV [RPL9B] | 1.29 ± 0.055 | 1.45 ± 0.075 | 1.44 ± 0.27 | 1.35 ± 0.11
GRKVLQKVQGESHIDSR [SIR4] | 3.27 ± 0.14 | 3.33 ± 0.079 | 3.17 ± 0.09 | 3.27 ± 0.09
LAQTLKLWRKIARLYSC [RRI2] | 1.2 ± 0.07 | 1.21 ± 0.058 | 1.34 ± 0.096 | 1.26 ± 0.053
DFKEVEDFLHFIVAEYI [SRB4] | 2.73 ± 0.071 | 3.22 ± 0.11 | 3.13 ± 0.056 | 3.14 ± 0.056
